# Laboratory results taken from paper PMC6929169, “Functional Characteristics of Caffeoyl Shikimate Esterase in Larix Kaempferi and Monolignol Biosynthesis in Gymnosperms” (International Journal of Molecular Sciences, 2019).
# B1: LkCSE (Larix kaempferi) (protein)
# chain: MSAVEKPAAPPNFWGEMPEEEYYASQGVKNHQERFETPHGILFTQSWIPIEGPVKGIVCMTHGYGSDTGWLFQKISITYAQWGYAVFGADLLGHGRSDGLRCYMGDMEKIAAASLFFFKAMRDSEPYKGLPAFLFGESMGGATTLLMYFQDPDGWSGLIFSAPLFVMPEPMKPSWWRLTAYGLLFGLADTWAVMPDNKMVKKAIKDPEKLKIIASNPRRYTGPPRVGTMRELCRICAFFQENFEKVTIPFLTCHGTSDEVTAPQSSTDLYEKAKSEDKTLKLYDDMYHSLIQGEPDENANQVLADMREWLDARASRTSS
# Substrate: O=C(/C=C/c1ccc(O)c(O)c1)O[C@@H]1CC(C(=O)O)=C[C@@H](O)[C@H]1O
# Assay: HPLC-MS of caffeic acid formed, Michaelis-Menten fit
# Format: biochemical, Larix kaempferi
# Conditions: 100 mM NaPO4 buffer pH 6.0, 500 μM dithiothreitol, 0–320 μM substrate, 1 μg enzyme in 100 μL, temperature of kinetics not given
protein,measurement,value
B1,Km,82.08 µM
